Experimental findings from patent publication US6639060 are described below.

This assay addresses human erbB-3 protein, gp180^erbB-3 (human) (UniProt P21860). In words: cell-based or functional assay.
UniProt P21860, sequence (P21860 20-1342): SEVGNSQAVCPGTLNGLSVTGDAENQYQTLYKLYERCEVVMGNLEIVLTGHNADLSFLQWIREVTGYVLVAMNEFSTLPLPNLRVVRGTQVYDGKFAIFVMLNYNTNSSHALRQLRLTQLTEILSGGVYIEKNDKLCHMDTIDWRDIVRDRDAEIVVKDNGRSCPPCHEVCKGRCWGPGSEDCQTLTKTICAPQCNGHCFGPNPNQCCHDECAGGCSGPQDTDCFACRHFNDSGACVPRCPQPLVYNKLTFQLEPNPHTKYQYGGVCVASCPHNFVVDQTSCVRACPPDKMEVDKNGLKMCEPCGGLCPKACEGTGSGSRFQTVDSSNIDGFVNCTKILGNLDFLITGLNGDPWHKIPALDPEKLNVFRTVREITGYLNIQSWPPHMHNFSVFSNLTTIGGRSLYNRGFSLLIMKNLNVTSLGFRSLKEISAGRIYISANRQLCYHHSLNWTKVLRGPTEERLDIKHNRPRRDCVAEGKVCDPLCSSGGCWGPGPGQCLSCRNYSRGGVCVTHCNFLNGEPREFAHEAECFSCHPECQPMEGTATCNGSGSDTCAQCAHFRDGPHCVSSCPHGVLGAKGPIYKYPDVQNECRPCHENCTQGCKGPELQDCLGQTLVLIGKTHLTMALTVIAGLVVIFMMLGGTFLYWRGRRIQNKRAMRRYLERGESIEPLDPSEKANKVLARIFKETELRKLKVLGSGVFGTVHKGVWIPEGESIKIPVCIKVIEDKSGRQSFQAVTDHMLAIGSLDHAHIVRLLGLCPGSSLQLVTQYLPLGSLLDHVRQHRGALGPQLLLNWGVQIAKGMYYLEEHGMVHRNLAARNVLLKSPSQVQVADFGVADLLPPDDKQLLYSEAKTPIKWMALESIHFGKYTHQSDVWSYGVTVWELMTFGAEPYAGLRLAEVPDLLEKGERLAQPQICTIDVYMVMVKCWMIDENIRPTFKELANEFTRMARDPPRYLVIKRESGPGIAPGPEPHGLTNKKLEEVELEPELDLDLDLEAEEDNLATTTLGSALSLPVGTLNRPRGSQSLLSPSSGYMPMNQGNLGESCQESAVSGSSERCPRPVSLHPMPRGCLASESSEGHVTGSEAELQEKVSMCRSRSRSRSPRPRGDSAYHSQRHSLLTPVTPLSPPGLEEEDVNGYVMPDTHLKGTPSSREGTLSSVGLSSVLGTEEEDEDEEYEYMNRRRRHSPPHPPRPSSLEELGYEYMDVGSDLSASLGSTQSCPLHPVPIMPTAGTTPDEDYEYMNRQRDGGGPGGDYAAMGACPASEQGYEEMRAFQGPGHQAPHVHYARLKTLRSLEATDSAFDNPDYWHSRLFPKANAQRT

For the substance EGF (epidermal growth factor) (ligand), the soft agar colonies/10^4 cells, + EGF 20 ng/ml (- EGF: 97) (colonies/10^4 cells) is 94.
